# B1: APC(I-A,Y-A) (amino acids 1200-1324; I1259A, Y1262A) fused to the yeast Gal4 DNA-binding domain (pGBDU-C3-APC(I-A,Y-A)) (other)
# chain: SSSGQSSKTEHMSSSSENTSTPSSNAKRQNQLHPSSAQSRSGQPQKAATCKVSSINQETAQTACVEDTPICFSRCSSLSSLSSAEDEIGCNQTTQEADSANTLQIAEIKEKIGTRSAEDPVSEVP
# notes: also called mutant APC (I-A,Y-A); mutant DRI-domain
# B2: APCwt (amino acids 1190-1328) fused to the yeast Gal4 DNA-binding domain (pGBDU-C3-APCwt) (other)
# chain: MKLLSSIEQACDICRLKKLKCSKEKPKCAKCLKNNWECRYSPKTKRSPLTRAHLTEVESRLERLEQLFLLIFPREDLDMILKMDSLQDIKALLTGLFVQDNVNKDAVTDRLASVETDMPLTLRQHRISATSSSEESSNKGQRQLTVSSQKQSFSFSKSSSGQSSKTEHMSSSSENTSTPSSNAKRQNQLHPSSAQSRSGQPQKAATCKVSSINQETIQTYCVEDTPICFSRCSSLSSLSSAEDEIGCNQTTQEADSANTLQIAEIKEKIGTRSAEDPVSEVPAVSQ
# notes: Yeast two-hybrid bait, expressed in S. cerevisiae PJ69-4A; also called APC wild-type (wt)
# Columns and labels:
# [1] = biological target: pol-βwt (full-length DNA polymerase β) fused to the yeast Gal4 activation domain (pGAD-C3-pol-βwt) (yeast; human, UniProt P06746 1-335); assay: yeast two-hybrid (growth on SD-ULH medium with 5 mM 3-amino-1,2,4-triazole)
# [2] = biological target: pol-βMut(Set-1) (T79A/K81A/R83A) fused to the yeast Gal4 activation domain (pGAD-C3-pol-βMut(Set-1)) (yeast; human, UniProt P06746 1-335); assay: as above
Binder,binding result [1],binding result [2]
B1,no binding,
B2,,no binding

# From US9144596 (UNIVERSITY OF FLORIDA RESEARCH FOUNDATION, dated 2015)
